B1: TPR t1 (parent)
chain: GACCAAUCUGCCCUCAGAGCUCGAGAACAUCUUCGGAUGCAGAGGAGGCAGGCUUCGGUGGCGCGAUAGCGCCAACGUCCUCAACCUCCAAUGCAUCCCACCACAUGAUGAUGCCUGAAGAGCCUUGGUUUUUUG

Variants of: B1
Experiment: polymerase ribozyme fitness, log enrichment relative to wild type (log ratio); higher = more active; in vitro selection for triplet polymerase activity
In short: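 Fitness compares each genotype's enrichment to that of the wild type on a logarithmic scale, averaging replicates with inverse-variance weights. The logarithm is base 2. Enrichment came from Illumina sequencing of input and output libraries after one triplicate round of in vitro selection, which included frozen incubation at −7 °C, of PCR-built, transcribed mutant libraries of each subunit of a heterodimeric triplet polymerase ribozyme. Only genotypes with ≥10 input reads and ≥1 read per output were kept.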

Point of comparison: C94G U109A, “polymerase ribozyme fitness (log ratio)” value -6.28. Against it:
- C12U C15G C79A C85G G120A — higher, -2.63
- C56G U112G — higher, 0.023
- C13U C28G G120C — higher, -1.05
- U21C U55G U59G G71U C115G — higher, -4.57
- G45U G63C — higher, -2.21
- C40U C124G — higher, 1.52
- C4U A74U U92G — higher, -3.59
- A84U C86A U125G — higher, -1.97
- C56A U112A G120A G135U — higher, -2.22
- G48C C97G — higher, -4.14
- C82U C115U — higher, -1.02
- A46U C56G G120C — higher, -0.234
- C102U A119G — higher, -0.237
- C8A C62U A74U — higher, 0.227
- C73U C86U U109C G117A G135U — within 0.2 log units, -6.47
- A26G A66C G113C U126G — lower, -6.73
- G10U G63A U112A — higher, -0.981
- G19C G52A C88A U112G C114A — within 0.2 log units, -6.11
- G10A G47A A68G U109C C123G — lower, -6.84
- A2G A68G U106G U125G — higher, -5.29
- C15U C79A — higher, -2.26
- C4U C11G C49U G51A C72U C80U C94G — higher, -1.9
- C53A U59C A105U — higher, -2.61
- C20U U96A U130G — higher, -4.47
- G10U C56A U59C U112A — higher, -0.649
- G36U U55G C89G G113U — higher, -4.27
- C13G A41U C72G C101U — higher, -3.53
- C12U C20U A43U G45A C56G G113A — higher, 0.057
- G60U A119G — higher, -0.151
- C73U A84G A90U A103G U109A C124A — higher, -4.51
- C72U A111U — higher, -2.46
- G52A G57A A66U G127C — higher, -3.31
- G45C G57C U59A G120A — higher, -0.07
- A24G G42U G45A C72G C88A A121G U125C — higher, -2.21
- A43C C123A — higher, -2.65
- G51U C53U — higher, -2.7
- A46U C89U — higher, -2.66
- C8A A111C — higher, 0.0486
- A46C C76A C86U C104U — higher, -0.577
- C20G C89U U109G U132C — higher, -3.87
- A6U G42C C73G — higher, -2.29
- C15G A66G G69C C89U — higher, -5.99
- C64U C70G C79U A111U U112A C124A — higher, -5.81
- G61A C73G — higher, -1.15
- C11G A50C — higher, -0.589
- C40A G48C A121C U129G — higher, -0.25
- A2C C101A U129A — higher, -2.79
- C13U G60A C82A U131G — higher, -0.416
- A5U U55G A95U U129G — higher, -1.03
- C11U G61A C88G C94G U130C — higher, -4.74
- C11G U33G A95G C101U G120C — higher, -5.25
- C62G A119U G128C — higher, -4.08
- C49G C89G — higher, -2.16
- C79U C80U U116C — higher, -4.27
- G93U A95U C97G G120U C124U — lower, -6.74
- C62U G107C — higher, -5.77
- C49U G120A — higher, 0.0229
- C11G A37U G42U — higher, -0.864
- C72U C85G — higher, -2.48
- U30A U112C — higher, -2.73
- C8A A91C G117C — higher, -2.17
- A37G G44C C72G U78C — higher, -1.05
- C11G G19C C73G — higher, -3.75
- G71A C94U U96A — higher, -2.05
- C13A A84G — higher, -2.42
- A43C G69C — higher, -4.47
- A6C G39U G63A — higher, -1.63
- G63A U109C — higher, -2.75
- G35U G71U — higher, -5.03
- A6U A18U C28U C70A C123G — within 0.2 log units, -6.38
- A26C C97U — higher, -5.92
- C73A C79U C86A C115U — higher, -3.26
- A37G A121C — higher, 2.11
- C20U C28A G93U G110C — higher, -4.8
- G65U G71A — higher, -4.69
- A50C C104U G110A A118U — higher, -0.437
- C89A G120U — higher, -1.79
- C3A G36C C70G G120A A121U — higher, -3.08
- G61U A105U — higher, -1.36
- G71C C114U — higher, -3.55
- C49U C56U — higher, -0.758
- G45A G58A A111C A118C — higher, -0.455

From the RNAGym collection of RNA variant scans (doi:10.1073/pnas.2313332121)
